The results in this text go back to article PMC3919167.

The target of the experiment is Bacteriophage P23-77 small major capsid protein VP16, recombinant (bacteriophage P23-77). Briefly: SEC. (In general: Size exclusion chromatography separates by hydrodynamic size, large species first.)

As a reminder, the stoichiometry N is the number of molecules, sites or subunits per partner or assembly.

Turning to “Bacteriophage P23-77 small major capsid protein VP16, recombinant (natural protein)”, the stoichiometry N came out at 2.
